Results as given in publication PMC9670026.

Tests used:
Protein A [1] = target: Protein A (UniProt P38507); assay: LSPR (localized surface plasmon resonance) biosensor; Protein A immobilised by EDC/NHS on the gold-nanostructure sensor chip; IgG 0.45 mg/mL in running buffer, 1 mL injected at 1 mL/min, one injection (n = 1); running buffer 10 mM citrate, 150 mM NaCl, pH 3.5; room temperature; Langmuir 1:1 fit; apparent affinity
Protein A [2] = target: Protein A (UniProt P38507); assay: LSPR (localized surface plasmon resonance) biosensor; Protein A immobilised by EDC/NHS on the gold-nanostructure sensor chip; IgG 0.45 mg/mL in running buffer, 1 mL injected at 1 mL/min, one injection (n = 1); running buffer 10 mM citrate, 150 mM NaCl, pH 4.0; room temperature; Langmuir 1:1 fit; apparent affinity
Protein A [3] = target: Protein A (UniProt P38507); assay: LSPR (localized surface plasmon resonance) biosensor; Protein A immobilised by EDC/NHS on the gold-nanostructure sensor chip; IgG 0.45 mg/mL in running buffer, 1 mL injected at 1 mL/min, one injection (n = 1); running buffer 10 mM citrate, 150 mM NaCl, pH 3.8; room temperature; Langmuir 1:1 fit; apparent affinity
[4] = target: Human IgG1, monomer fraction (human); assay: SEC-MALS; SEC-MALS-RI-UV on Superdex 200 Increase 10/300 GL, 1 mL/min, 100 uL injected, room temperature; 0.45 mg/mL total IgG; aggregate fraction of the IgG1 batch
Protein A [5] = target: Protein A (UniProt P38507); assay: LSPR (localized surface plasmon resonance) biosensor; Protein A immobilised by EDC/NHS on the gold-nanostructure sensor chip; IgG 0.45 mg/mL in running buffer, 1 mL injected at 1 mL/min, one injection (n = 1); running buffer PBS pH 7.4; room temperature; Langmuir 1:1 fit; apparent affinity
[6] = target: Human IgG1 monoclonal antibody, aggregate fraction (mainly dimers) (UniProt P01857); assay: LSPR (localized surface plasmon resonance) fiber-optical nanoplasmonic biosensor, ArgusEye AB; conditions: room temperature under ambient conditions, pH 7.4: 140 mM sodium chloride, 2.7 mM potassium chloride, 10 mM phosphate, pH 4.0, 3.8 and 3.5: 150 mM NaCl with 10 mM citrate, pH 7.4: PBS (10 mM phosphate), pH 4.0, 3.8 and 3.5: 10 mM citrate (Methods and Results text). The Figure 3 caption state
[7] = target: Human IgG1 monoclonal antibody, monomer fraction (UniProt P01857); assay: as above; conditions: room temperature under ambient conditions, pH 7.4: 140 mM sodium chloride, 2.7 mM potassium chloride, 10 mM phosphate, pH 4.0, 3.8 and 3.5: 150 mM NaCl with 10 mM citrate, pH 7.4: PBS (10 mM phosphate), pH 4.0, 3.8 and 3.5: 10 mM citrate (Methods and Results text). The Figure 3 caption state

Row | Substance | Kd (Protein A [1]) | koff (Protein A [1]) | kon (Protein A [1]) | Kd (Protein A [2]) | koff (Protein A [2]) | kon (Protein A [2]) | Kd (Protein A [3]) | koff (Protein A [3]) | kon (Protein A [3]) | Kd (Protein A [5]) | koff (Protein A [5]) | kon (Protein A [5]) | further results
1 | Human IgG1, monomer fraction (antibody) | 0.66 µM | 0.011 s⁻¹ | 17000 M⁻¹ s⁻¹ | 0.13 µM | 0.004 s⁻¹ | 31000 M⁻¹ s⁻¹ | 0.33 µM | 0.01 s⁻¹ | 30000 M⁻¹ s⁻¹ | 0.0013 µM | 2.9e-05 s⁻¹ | 22000 M⁻¹ s⁻¹ | stoichiometry N [4]: 2
2 | Protein A (staphylococcal protein A, SpA) |  |  |  |  |  |  |  |  |  |  |  |  | koff ([6]; pH 3.5): 0.0099 s⁻¹; kon ([6]; pH 3.5): 28000 M⁻¹ s⁻¹; koff ([6]; pH 3.8): 0.0024 s⁻¹; kon ([6]; pH 3.8): 36000 M⁻¹ s⁻¹; koff ([6]; pH 4.0): 0.00092 s⁻¹; kon ([6]; pH 4.0): 36000 M⁻¹ s⁻¹; koff ([6]; pH 7.4): 2.9e-05 s⁻¹; kon ([6]; pH 7.4): 25000 M⁻¹ s⁻¹; koff ([7]; pH 3.5): 0.011 s⁻¹; kon ([7]; pH 3.5): 17000 M⁻¹ s⁻¹; koff ([7]; pH 3.8): 0.01 s⁻¹; kon ([7]; pH 3.8): 30000 M⁻¹ s⁻¹; koff ([7]; pH 4.0): 0.004 s⁻¹; kon ([7]; pH 4.0): 31000 M⁻¹ s⁻¹; koff ([7]; pH 7.4): 2.9e-05 s⁻¹; kon ([7]; pH 7.4): 22000 M⁻¹ s⁻¹
3 | Human IgG1, aggregate fraction (antibody) | 0.35 µM | 0.0099 s⁻¹ | 28000 M⁻¹ s⁻¹ | 0.026 µM | 0.00092 s⁻¹ | 36000 M⁻¹ s⁻¹ | 0.065 µM | 0.0024 s⁻¹ | 36000 M⁻¹ s⁻¹ | 0.0012 µM | 2.9e-05 s⁻¹ | 25000 M⁻¹ s⁻¹ | 
